Molecular target: the molecule itself

B1: Nsp1•Nup49•Nup57 channel nup hetero-trimer (CNT) (complex, Chaetomium thermophilum)
chain 1: MDEIITRWATDLAKYQKEFKEQAAKVMEWDRLLVENGEKIQKLYTSTYEAERASNEIERQLSNVESQQEELTAWLDRYERELDELYAKQMGSAAGEQAAGPDQERERTYKLAEKLTDQLDEMGKDLAKMIKEINDMSNTLSKGSKPDDPLTQIVRVLNGHLAQLQWIDTNAAALQAKVAAAQKAAGSMGANVPGTETDAAESFYRSYR
chain 2: EALQQEIAKIDEEIQKCIRDKEAVDAFLPAHGEQLAAIPTDVNFVTRKSEGAHNALSSDILAIDQLRELVKQDADNARLSFKAIDNLKLPMQYHQAGLWSKQMGGAGTAGASGASADADGQSNADLISYFSKTADEMEEMMKKFEKTITEIEAHLTGVEAHAMAMQNVAAQSRNAAQGGVDERVYELAAVLREFEESILKVAGVVGGVKEGVTELQLRDFMGHGS
chain 3: YQKPIPEQIKLIVDKWNPNHPNCAFKTYLYNKVDEHTVPLYGPGPNEDPKEWEEALQRKPAPNFIPVLCSGFPSIVARLMLQRRVITEFNNKLHQINASLDAILSRHDLDHTVRAFNARRRHAELSRRCLHLAARVQVLRNRGYALSGDEDELKQKLQQIDKTLNDPAQGSRLEELWSRLIVLRGYAEDLKDQINQAGITESDGLGEEIEAKAKKILEDYDKQLQHLKKQVEEAKKDFEEWEKQHN
stoichiometry N: 2

Reference: PMC4826903 (Science (New York, N.Y.), 2015)
